The source of these data is patent US20240018245A1 (Genentech, published 2024).

Assay [1] deals with T1, FcRH5 (fragment crystallizable receptor-like 5) on MOLP-2 cells (human, UniProt Q96RD9 16-977).
T1 sequence (looked up): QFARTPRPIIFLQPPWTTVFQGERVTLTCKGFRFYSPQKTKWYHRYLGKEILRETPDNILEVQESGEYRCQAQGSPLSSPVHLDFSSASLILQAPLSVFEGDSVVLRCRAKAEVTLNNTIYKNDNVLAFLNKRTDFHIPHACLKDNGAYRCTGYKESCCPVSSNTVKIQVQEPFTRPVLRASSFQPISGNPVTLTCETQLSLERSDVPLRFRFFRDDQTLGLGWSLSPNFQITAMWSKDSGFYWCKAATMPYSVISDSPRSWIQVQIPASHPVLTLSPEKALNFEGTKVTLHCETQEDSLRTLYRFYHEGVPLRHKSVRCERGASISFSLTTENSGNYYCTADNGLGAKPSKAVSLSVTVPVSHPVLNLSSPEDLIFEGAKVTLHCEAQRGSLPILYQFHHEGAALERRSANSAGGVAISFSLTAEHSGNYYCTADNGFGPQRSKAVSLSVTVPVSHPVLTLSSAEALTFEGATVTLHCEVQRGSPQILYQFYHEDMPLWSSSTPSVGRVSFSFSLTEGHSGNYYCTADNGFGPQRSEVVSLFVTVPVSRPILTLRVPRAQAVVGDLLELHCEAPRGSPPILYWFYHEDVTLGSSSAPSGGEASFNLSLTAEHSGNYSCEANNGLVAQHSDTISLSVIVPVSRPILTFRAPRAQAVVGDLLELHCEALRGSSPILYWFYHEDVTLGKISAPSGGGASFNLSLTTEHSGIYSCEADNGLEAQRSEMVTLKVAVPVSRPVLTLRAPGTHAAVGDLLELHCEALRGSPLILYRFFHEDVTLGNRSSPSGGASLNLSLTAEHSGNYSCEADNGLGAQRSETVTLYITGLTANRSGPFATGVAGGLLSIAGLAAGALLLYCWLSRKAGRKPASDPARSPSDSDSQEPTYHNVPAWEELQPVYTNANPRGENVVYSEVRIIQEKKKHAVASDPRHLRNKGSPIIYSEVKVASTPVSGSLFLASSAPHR
The assay is described as follows: cell-based or functional assay.

Assay [2] deals with CD3 on T cells of human peripheral blood mononuclear cells (PBMCs) (human, UniProt P07766 23-207). Briefly: cell-based or functional assay.
Assay [3] concerns the target T2, CD3 (cluster of differentiation 3) (UniProt P07766 23-126).
T2 construct: also called CD3 antigen
The assay is described as follows: method not stated; monovalent KD used to calculate CD3 receptor occupancy.

CD3 on T cells of human peripheral blood mononuclear cells (PBMCs), sequence (P07766 23-207): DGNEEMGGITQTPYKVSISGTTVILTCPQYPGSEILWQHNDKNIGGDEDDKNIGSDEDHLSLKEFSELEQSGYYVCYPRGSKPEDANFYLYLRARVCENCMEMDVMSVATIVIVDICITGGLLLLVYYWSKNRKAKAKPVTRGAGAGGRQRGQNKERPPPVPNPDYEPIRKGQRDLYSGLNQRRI
T2 sequence (P07766 23-126): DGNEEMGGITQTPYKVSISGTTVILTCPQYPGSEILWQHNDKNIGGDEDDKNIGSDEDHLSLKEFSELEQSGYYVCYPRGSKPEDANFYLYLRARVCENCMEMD

B1: cevostamab (bispecific antibody, human IgG1, kappa, N297G)
heavy 1: not shown
light 1: DIQMTQSPSSLSASVGDRVTITCKASQDVRNLVVWFQQKPGKAPKLLIYSGSYRYSGVPSRFSGSGSGTDFTLTISSLQPEDFATYYCQQHYSPPYTFGQGTKVEIKRTVAAPSVFIFPPSDEQLKSGTASVVCLLNNFYPREAKVQWKVDNALQSGNSQESVTEQDSKDSTYSLSSTLTLSKADYEKHKVYACEVTHQGLSSPVTKSFNRGEC
heavy 2: EVQLVQSGAEVKKPGASVKVSCKASGFTFTSYYIHWVRQAPGQGLEWIGWIYPENDNTKYNEKFKDRVTITADTSTSTAYLELSSLRSEDTAVYYCARDGYSRYYFDYWGQGTLVTVSSASTKGPSVFPLAPSSKSTSGGTAALGCLVKDYFPEPVTVSWNSGALTSGVHTFPAVLQSSGLYSLSSVVTVPSSSLGTQTYICNVNHKPSNTKVDKKVEPKSCDKTHTCPPCPAPELLGGPSVFLFPPKPKDTLMISRTPEVTCVVVDVSHEDPEVKFNWYVDGVEVHNAKTKPREEQYGSTYRVVSVLTVLHQDWLNGKEYKCKVSNKALPAPIEKTISKAKGQPREPQVYTLPPSREEMTKNQVSLSCAVKGFYPSDIAVEWESNGQPENNYKTTPPVLDSDGSFFLVSKLTVDKSRWQQGNVFSCSVMHEALHNHYTQKSLSLSPGK
light 2: not shown
notes: Humanized full-length non-glycosylated IgG1 kappa, knobs-into-holes; also called BFCR4350A; RO7187797
As a reminder, the Kd is a measure of binding affinity in units of concentration. Consider B1, for which the “EC50 for T-cell activation in the in vitro human PBMC:MOLP-2 co-culture” value in assay [1] and in assay [2] was 0.0588 µg/mL throughout. In addition, in assay [3], the Kd is 2.6 nM.
